Measured values reported in patent US8394929B2, “Nogo receptor-mediated blockade of axonal growth” (Yale University, priority 2000, dated 2013).

Assays:
[1] = test system: TPA-induced growth cone collapse; test: TPA-induced growth cone collapse in E12 chick DRG explants; assay type: cell-based
Procedure: For further testing, a synthetic peptide containing amino acid residues #1055-1094 of hNgR, acetylated at the […] was used [hereinafter “Peptide 140”]. […] Antagonist of Nogo-66 inhibitory activity may act by competing for, and thereby blocking NgR binding sites. To determine the antagonistic activity of Peptide 140, the above synthetic form of the peptide was added to E12 chick DRG explant cultures approximately 10 min before application of various concentrations of GST-NogoA (residues #1055-1120), TPA or Sema3A. 30 min later, cultures were fixed and growth cone collapse was assessed following staining with rhodamine-phalloidin.

[2] = test system: 3T3 fibroblasts; test: 3T3 fibroblast spreading; assay type: cell-based, mouse; conditions: substrate-bound / coated surfaces
Procedure: (a) is a schematic diagram which summarizes features of the Nogo proteins utilized in this study. (b) is a photograph of NIH-3T3 fibroblasts cultured on surfaces coated with Amino-Nogo, GST-Nogo-66 or no protein and stained for filamentous actin (scale bar, 40 μm). (c) is a photograph of chick E12 dorsal root ganglions cultured on surfaces coated with Amino-Nogo, GST-Nogo-66 or no protein (substrate-bound) or with 100 nM Nogo protein (soluble) (scale bar, 40 μm). (d) is a photograph of a gel and an immunoblot where purified Amino-Nogo-Myc-His protein was subjected to SDS-PAGE and stained with Commassie Brilliant Blue (CBB) or immunoblotted with anti-Myc antibodies (Myc) (molecular weight markers of 200, 116, 97, 65 & 45 kDa are at left). (e) is a graph displaying experimental data where the percentage of 3T3 fibroblasts with an area greater than 1200 μm^2 (spread) was measured from experiments as in (b) on Nogo-coated surfaces (black) or with soluble 100 nM Nogo preparations (blue) (AM, Amino-Nogo; AM+Myc, Amino-Nogo preincubated with anti-Myc antibody; AM+Myc+Mo, AM+Myc preincubated with anti-mouse IgG antibody; Myc+Mo, anti-Myc antibody plus anti-murine IgG antibody). (f) is a graph displaying experimental data where the percentage of spread COS-7 cells was determined after culture on Nogo-coated surfaces or with soluble 100 nM Nogo preparations. (g) is a graph displaying experimental data where the effects of purified preparations of GST-Nogo-66 or Amino-Nogo on growth cone morphology was assessed in E12 dorsal root ganglion cultures at the indicated concentrations after thirty minutes. […] (h) is a graph displaying experimental data where the neurite outgrowth per cell in […] dorsal root ganglion cultures was quantitated from experiments as in (c) on Nogo-coated surfaces or with soluble 100 nM Nogo preparations. (i) is a graph displaying experimental data where the effects of Nogo preparations on neurite outgrowth in cerebellar granule neurons was measured.
Assays of Nogo-A function have included growth cone collapse, neurite outgrowth, and fibroblast spreading with substrate-bound and soluble protein preparations (Caroni & Schwab, (1988) J. Cell Biol. 106, 1281-1288; GrandPré et al., (2000) Nature 403, 439-444; Chen et al., (2000) Nature 403, 434-439; Prinjha et al., (2000) Nature 403, 483-484). […] Since NI250 preparations and full length Nogo-A are non-permissive for 3T3 spreading, it was necessary to consider whether different domains of Nogo might subserve this in vitro activity. To facilitate a comparison of different Nogo-A domains, the acidic amino terminal 1040 amino acid fragment (Amino-Nogo) was expressed as a Myc-his tagged protein in HEK293T cells (FIG. 1d). The Nogo protein is present in cytosolic fractions. […]

[3] = test system: mNgR deletion mutants; test: AP-hNogo-A (1055-1120) binding to COS-7 cells transfected with other mNgR deletion mutants; parameters: species or system mouse
Text: The NgΔRNT construct encodes residues 58 to 473 of mNgR. The NgRANT construct was made by using the primers ΔLRR-NT5 (5′-[…]-3′) and NgR3X (5′-[…]-3′) to amplify a sequence from the wtNgR-pSecTag2Hygro plasmid. The amplified sequence was ligated into the XhoI/BamHI of pSecTag2.
The NgLRR-construct encodes residues 306 to 473 of mNgR. The NgLRR construct was made by using the primers, MycNgR305 (5′-[…]-3′) and NgR3X (above) to amplify a sequence from the from the wtNgR-pSecTag2Hygro plasmid. The amplified sequence was ligated into the XhoI/BamHI of pSecTag2.
The mNgR LLR deletions and NgRΔLRRCT deletion mutants were generated using ExSite™ PCR-based site-directed mutagenesis kit (Stratagene, La Jolla, Calif.). Generally, the primers described below were used to amplify a sequence from the wtNgR pSecTag2 plasmid. The ends of the amplified products were ligated together. The resulting constructs were transfected into COS-7 cells.
The NgRΔ1-2 construct encodes residues 1 to 56 and residues 106 to 473 of mNgR. The primers used for making the NgRΔ1-2 construct were DEL LRR (5′PO4) (5′-[…]-3′) and DEL LRR2 (5′-[…]-3′). […]
To determine whether mNgR or mNgR deletion mutants bound to hNogo-A (1055-1120), wtNgR or mNgR deletion mutants were transfected into COS-7 cells. […] AP-fusion protein was detected as previously described for AP-Sema3A (Takahashi et al., Nature Neurosci. 1:487-493, 1998).

Peptide 140: synthetic peptide of amino acids #1055-1094 of the human NogoA protein, acetylated and amidated at the termini (Ac-RIYKGVIQAIQKSDEGHPFRAYLESEVAISEELVQKYSNS-NH2; UniProt Q9NQC3 1055-1094, looked up, fragment)
effect on TPA-induced growth cone collapse (in words) [1]: no significant reduction in collapse

B1: GST-Nogo: GST fusion protein of the 66 amino acid lumenal-extracellular fragment of Nogo-A, expressed in E. coli (protein)
chain: RIYKGVIQAIQKSDEGHPFRAYLESEVAISEELVQKYSNSALGHVNCTIKELRRLFLVDDLVDSLK
modifications: also: GST fusion protein
notes: GST fusion protein of the 66 amino acid lumenal-extracellular fragment of Nogo-A, expressed in E. coli
3T3 fibroblast spreading (in words) [2]: does not inhibit spreading

B2: AP-Nogo: fusion protein of His6 tag, placental alkaline phosphatase (AP) and the 66 amino acid active domain of Nogo (protein)
chain: HHHHHHIIPVEEENPDFWNREAAEALGAAKKLQPAQTAAKNLIIFLGDGMGVSTVTAARILKGQKKDKLGPEIPLAMDRFPYVALSKTYNVDKHVPDSGATATAYLCGVKGNFQTIGLSAAARFNQCNTTRGNEVISVMNRAKKAGKSVGVVTTTRVQHASPAGTYAHTVNRNWYSDADVPASARQEGCQDIATQLISNMDIDVILGGGRKYMFRMGTPDPEYPDDYSQGGTRLDGKNLVQEWLAKRQGARYVWNRTELMQASLDPSVTHLMGLFEPGDMKYEIHRDSTLDPSLMEMTEAALRLLSRNPRGFFLFVEGGRIDHGHHESRAYRALTETIMFDDAIERAGQLTSEEDTLSLVTADHSHVFSFGGYPLRGSSIFGLAPGKARDRKAYTVLLYGNGPGYVLKDGARPDVTESESGSPEYRQQSAVPLDEETHAGEDVAVFARGPQAHLVHGVQEQTFIAHVMAFAACLEPYTACDLAPPAGTTDAAHPGRIYKGVIQAIQKSDEGHPFRAYLESEVAISEELVQKYSNSALGHVNCTIKELRRLFLVDDLVDSLK
binding (in words) [3]: did not
